The source of these data is US20080254024A1 (Genentech, published 2008).

Experiment [1] deals with T1, NH2-terminal GD epitope-tagged human EphB2 overexpressed on cells (HT1080-EphB2, SVT2-EphB2) (human, UniProt P29323 19-1055).
T1 sequence (looked up): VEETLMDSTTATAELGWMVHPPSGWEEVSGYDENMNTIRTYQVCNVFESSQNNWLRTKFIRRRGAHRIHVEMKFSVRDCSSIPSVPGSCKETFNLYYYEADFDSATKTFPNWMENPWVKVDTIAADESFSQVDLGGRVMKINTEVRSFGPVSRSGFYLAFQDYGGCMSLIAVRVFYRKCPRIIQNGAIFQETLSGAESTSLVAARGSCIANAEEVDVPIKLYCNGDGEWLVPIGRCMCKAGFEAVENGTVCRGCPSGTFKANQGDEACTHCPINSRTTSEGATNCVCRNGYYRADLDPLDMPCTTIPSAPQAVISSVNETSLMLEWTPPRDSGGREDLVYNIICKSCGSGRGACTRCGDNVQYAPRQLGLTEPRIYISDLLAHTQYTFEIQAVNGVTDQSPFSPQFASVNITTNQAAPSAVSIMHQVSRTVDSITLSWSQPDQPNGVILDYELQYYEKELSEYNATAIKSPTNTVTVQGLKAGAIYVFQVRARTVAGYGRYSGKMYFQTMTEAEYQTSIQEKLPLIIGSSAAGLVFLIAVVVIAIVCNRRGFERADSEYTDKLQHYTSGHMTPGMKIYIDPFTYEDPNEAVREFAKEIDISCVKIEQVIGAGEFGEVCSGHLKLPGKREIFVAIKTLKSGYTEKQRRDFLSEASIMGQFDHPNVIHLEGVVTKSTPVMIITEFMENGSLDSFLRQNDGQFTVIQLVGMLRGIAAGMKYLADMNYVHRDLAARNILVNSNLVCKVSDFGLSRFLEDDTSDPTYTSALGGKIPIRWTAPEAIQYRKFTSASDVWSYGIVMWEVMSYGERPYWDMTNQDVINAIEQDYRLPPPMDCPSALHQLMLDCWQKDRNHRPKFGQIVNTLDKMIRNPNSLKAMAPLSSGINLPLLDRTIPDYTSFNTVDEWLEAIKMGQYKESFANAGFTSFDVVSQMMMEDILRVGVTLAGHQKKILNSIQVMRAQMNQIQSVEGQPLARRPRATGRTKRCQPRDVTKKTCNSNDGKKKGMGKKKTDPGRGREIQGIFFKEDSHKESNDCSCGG
In words: cell-based or functional assay.

The target of experiment [2] is T1, NH2-terminal GD epitope-tagged human …. The experiment is described as follows: Scatchard analysis of 125I-labelled MAb 2H9 competed with unlabelled MAb 2H9 on HT1080-EphB2 cells.
In experiment [3] the target is T2, endogenous human EphB2 on cells or tissue (HT1080-GD vector control cells, colorectal cancer cell lines, … (human, UniProt P29323 19-1055)).
T2 construct: whole, on cells; also called vector control HT1080 cell line
T2 sequence (looked up): T1 sequence (looked up)
In words: saturation binding on HT1080-GD cells, HRP-conjugated secondary antibody, absorbance at 450 nm.

For experiment [4], the target named is T2, endogenous human EphB2 on cells or …. The experiment is described as follows: Scatchard analysis of 125I-labelled MAb 2H9 competed with unlabelled MAb 2H9 on HT1080-GD cells.
Experiment [5] has as its target T1, NH2-terminal GD epitope-tagged human …. The experiment is described as follows: Scatchard analysis, 125I-labeled MAb 2H9 with unlabeled MAb 2H9 on HT1080-EphB2 cells, on ice.
The target is the same in experiment [6]. In words: saturation binding on HT1080-EphB2 cells, HRP-conjugated secondary antibody, absorbance at 450 nm.
Experiment [7] concerns the target T2, endogenous human EphB2 on cells or …. In words: Scatchard analysis, 125I-labeled MAb 2H9 with unlabeled MAb 2H9 on HT1080-GD cells, on ice; HT1080-GD cells, Scatchard analysis.
Experiment [8] concerns the target T3, polyhis-tagged human EphB2 (baculovirus-derived His8-tagged EphB2 receptor) (human, UniProt P29323 19-543).
T3 construct: extracellular domain; also called polyhis tagged EphB2; purified EphB2 immunogen; not shown: His8 tag
T3 sequence (looked up): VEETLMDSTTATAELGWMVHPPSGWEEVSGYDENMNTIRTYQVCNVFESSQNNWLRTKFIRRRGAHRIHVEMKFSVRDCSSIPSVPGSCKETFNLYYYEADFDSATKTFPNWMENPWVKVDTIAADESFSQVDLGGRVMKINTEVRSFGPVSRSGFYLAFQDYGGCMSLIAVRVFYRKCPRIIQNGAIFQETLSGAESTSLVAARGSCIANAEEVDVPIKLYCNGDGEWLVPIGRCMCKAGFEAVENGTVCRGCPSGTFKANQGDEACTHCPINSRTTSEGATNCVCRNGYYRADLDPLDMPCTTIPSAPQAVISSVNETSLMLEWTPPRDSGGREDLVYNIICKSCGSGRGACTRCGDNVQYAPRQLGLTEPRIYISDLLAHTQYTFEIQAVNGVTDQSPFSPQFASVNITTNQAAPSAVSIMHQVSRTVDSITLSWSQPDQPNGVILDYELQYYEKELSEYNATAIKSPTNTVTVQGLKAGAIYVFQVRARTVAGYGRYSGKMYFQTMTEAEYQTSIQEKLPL
The experiment is described as follows: SPR (BIAcore 3000), antibody immobilized on CM5 chip, polyhis-tagged EphB2 injected, 1:1 model. On the procedure: Binding affinity of Mab 2H9 was determined by surface plasmon resonance using Pharmacia BIAcore® 3000 (BIAcore AB, Uppsala, Sweden) at room temperature (see, e.g., Morton et al. (1998) Methods in Enzymology, 295, 268-294). Anti-EphB2 antibodies were immobilized to the sensor chip (CM5) through primary amine groups. The carboxymethylated sensor chip surface matrix was activated by injecting 20 μl of a mixture of 0.025 M N-hydroxysuccinimide and 0.1 M N-ethyl-N′(dimethylaminopropyl) carbodiimide at 5 μl/min. 5-10 μl of 10 μg/ml solution of anti-EphB2 antibodies in 10 mM sodium acetate, pH 4.5, were injected at 5 μl/min. After coupling, unoccupied sites on the chip were blocked by injecting 20 μl of 1M ethanolamine, pH 8.5. The running buffer was PBS containing 0.05% polysorbate 20. For kinetic measurements, two-fold serial dilutions of polyhis-tagged EphB2 in running buffer were injected over the flow cells for 3 minutes at a flow rate of 30 μl/min and the bound polyhis tagged EphB2 was allow to dissociate for 20 minutes. The binding surface was regenerated by injecting 20 μl of 10 mM glycine-HCl (pH 1.5). […] There was no significant non-specific binding of polyhis tagged EphB2 to flow cell one. For calculate apparent binding affinity, data were analyzed using a 1:1 binding model using global fitting. The association and dissociation rate constants were fitted simultaneously (BIAevaluation software).

B1: anti-EphB2 monoclonal antibody produced by hybridoma cell line 2H9.11.14 (ATCC PTA-6606) (antibody, IgG1, V domains shown)
VH: QVQLQQSGAELAKPGASVKMSCKASGYTFTSYWMHWVKQRPGQGLEWIGFINPSTGYTDYNQKFKDKATLTVKSSNTAYMQLSRLTSEDSAVYYCTRRLKLLRYAMDYWGQGTTLTVSA
VL: DIVMTQSPSSLSVSAGEKVTMNCKSSQSLLNSGNQENYLAWYQQKPGQPPKLLIYGASTRESGVPDRFTGSGSGTDFTLTISSVQAEDLAVYYCQNDHSYPFTFGAGTKVEIKR
notes: 125I-labelled in the Scatchard and uptake assays; also called Mab 2H9; MAb 2H9
As for B1, the “internalization of 125I-labeled MAb 2H9 by HT1080-EphB2 cells after shift to 37° C. for 1 hour” value in experiment [1] is approximately 2 fold. Moreover, the Kd in experiment [2] was 4.1 nM; in experiment [4], 4.4 nM; in experiment [5] it was approximately 4 nM; in experiment [7], approximately 4 nM; in experiment [8], 0.12 nM. Further, the “EC50 (read off the curve)” value in experiment [3] and in experiment [6] was approximately 0.02 µg/mL each time. The same molecule displayed a koff in experiment [8] of 1.03e-05 s⁻¹. Also, the kon in experiment [8] turned out to be 82800 M⁻¹ s⁻¹.

B2: immunoconjugate 2H9-MC-vc-PAB-MMAE (antibody, mouse IgG1, V domains shown)
VH: B1 VH
VL: B1 VL
modifications: MC-vc-PAB-MMAE drug-linker covalently coupled to the antibody; sites and chain not stated
notes: also called MMAE-vc-2H9; 2H9-vc-MMAE
As for B2, the “antibody concentration required for half-maximal cell killing (IC50), Cell Titer-Glo viability after 48 h” value in experiment [1] came out at 0.006 µg/mL. The “EC50 (read off the curve)” value in experiment [6] was approximately 0.02 µg/mL.
